Reference: patent publication US20200270325A1 (Merck Sharp & Dohme, published 2020)
Numbered stars: 1 amine (or outer) side, 2 acyl side, 3 side chain; on linkers, the order of the positions; unused ones are H or OH. Square brackets hold non-standard residues; d marks the D form. Side chains are listed from the residue outwards. Ends that are not written are not given here. * marks the point of attachment. Phe(4-CH2NH2) = NCc1ccc(C[C@H](N)C(=O)O)cc1; C18 diacid = O=C(O)CCCCCCCCCCCCCCCCC(=O)*; γGlu = O=C(O)[C@H](CCC(=O)[*:2])N[*:1]; Met(O2) = CS(=O)(=O)CC[C@H](N)C(=O)O; αMeD = C[C@](N)(CC(=O)O)C(=O)O; AEEA = NCCOCCOCC(=O)O; Aib = CC(C)(N)C(=O)O

B1: TP638 (peptide)
peptide: H[Aib]QGTFTSDYSKYLDARAAQDFV[Phe(4-CH2NH2)]([AEEA-γGlu-C18 diacid])WLLDT-NH2
modifications: N-terminus assumed
SMILES: CC(C)C[C@H](NC(=O)[C@H](Cc1ccc(O)cc1)NC(=O)[C@H](CCCCN)NC(=O)[C@H](CO)NC(=O)[C@H](Cc1ccc(O)cc1)NC(=O)[C@H](CC(=O)O)NC(=O)[C@H](CO)NC(=O)[C@@H](NC(=O)[C@H](Cc1ccccc1)NC(=O)[C@@H](NC(=O)CNC(=O)[C@H](CCC(N)=O)NC(=O)C(C)(C)NC(=O)[C@@H](N)Cc1c[nH]cn1)[C@@H](C)O)[C@@H](C)O)C(=O)N[C@@H](CC(=O)O)C(=O)N[C@@H](C)C(=O)N[C@@H](CCCNC(=N)N)C(=O)N[C@@H](C)C(=O)N[C@@H](C)C(=O)N[C@@H](CCC(N)=O)C(=O)N[C@@H](CC(=O)O)C(=O)N[C@@H](Cc1ccccc1)C(=O)N[C@H](C(=O)N[C@@H](Cc1ccc(CNC(=O)COCCOCCNC(=O)CC[C@H](NC(=O)CCCCCCCCCCCCCCCCC(=O)O)C(=O)O)cc1)C(=O)N[C@@H](Cc1c[nH]c2ccccc12)C(=O)N[C@@H](CC(C)C)C(=O)N[C@@H](CC(C)C)C(=O)N[C@@H](CC(=O)O)C(=O)N[C@H](C(N)=O)[C@@H](C)O)C(C)C
B2: TP637 (peptide)
peptide: H[Aib]QGTFTSDYSKYLDARAAQDFVK([AEEA-γGlu-C18 diacid])WL[Met(O2)]DT-NH2
modifications: N-terminus assumed
SMILES: CC(C)C[C@H](NC(=O)[C@H](Cc1ccc(O)cc1)NC(=O)[C@H](CCCCN)NC(=O)[C@H](CO)NC(=O)[C@H](Cc1ccc(O)cc1)NC(=O)[C@H](CC(=O)O)NC(=O)[C@H](CO)NC(=O)[C@@H](NC(=O)[C@H](Cc1ccccc1)NC(=O)[C@@H](NC(=O)CNC(=O)[C@H](CCC(N)=O)NC(=O)C(C)(C)NC(=O)[C@@H](N)Cc1c[nH]cn1)[C@@H](C)O)[C@@H](C)O)C(=O)N[C@@H](CC(=O)O)C(=O)N[C@@H](C)C(=O)N[C@@H](CCCNC(=N)N)C(=O)N[C@@H](C)C(=O)N[C@@H](C)C(=O)N[C@@H](CCC(N)=O)C(=O)N[C@@H](CC(=O)O)C(=O)N[C@@H](Cc1ccccc1)C(=O)N[C@H](C(=O)N[C@@H](CCCCNC(=O)COCCOCCNC(=O)CC[C@H](NC(=O)CCCCCCCCCCCCCCCCC(=O)O)C(=O)O)C(=O)N[C@@H](Cc1c[nH]c2ccccc12)C(=O)N[C@@H](CC(C)C)C(=O)N[C@@H](CCS(C)(=O)=O)C(=O)N[C@@H](CC(=O)O)C(=O)N[C@H](C(N)=O)[C@@H](C)O)C(C)C
B3: TP580 (peptide)
peptide: H[Aib]QGTFTSD[Phe(4-CH2NH2)]([AEEA-AEEA-γGlu-C20‑OH])SKYLDARAAQDFVQWL[Met(O2)]DT-NH2
B4: TP634 (peptide)
peptide: H[Aib]QGTFTSDYSKYLDARAAQ[Phe(4-CH2NH2)]([AEEA-AEEA-γGlu-C18 diacid])FVQWL[Met(O2)][αMeD]T-NH2
modifications: N-terminus assumed
SMILES: CC(C)C[C@H](NC(=O)[C@H](Cc1ccc(O)cc1)NC(=O)[C@H](CCCCN)NC(=O)[C@H](CO)NC(=O)[C@H](Cc1ccc(O)cc1)NC(=O)[C@H](CC(=O)O)NC(=O)[C@H](CO)NC(=O)[C@@H](NC(=O)[C@H](Cc1ccccc1)NC(=O)[C@@H](NC(=O)CNC(=O)[C@H](CCC(N)=O)NC(=O)C(C)(C)NC(=O)[C@@H](N)Cc1c[nH]cn1)[C@@H](C)O)[C@@H](C)O)C(=O)N[C@@H](CC(=O)O)C(=O)N[C@@H](C)C(=O)N[C@@H](CCCNC(=N)N)C(=O)N[C@@H](C)C(=O)N[C@@H](C)C(=O)N[C@@H](CCC(N)=O)C(=O)N[C@@H](Cc1ccc(CNC(=O)COCCOCCNC(=O)COCCOCCNC(=O)CC[C@H](NC(=O)CCCCCCCCCCCCCCCCC(=O)O)C(=O)O)cc1)C(=O)N[C@@H](Cc1ccccc1)C(=O)N[C@H](C(=O)N[C@@H](CCC(N)=O)C(=O)N[C@@H](Cc1c[nH]c2ccccc12)C(=O)N[C@@H](CC(C)C)C(=O)N[C@@H](CCS(C)(=O)=O)C(=O)N[C@@](C)(CC(=O)O)C(=O)N[C@H](C(N)=O)[C@@H](C)O)C(C)C
B5: TP635 (peptide)
peptide: H[Aib]QGTFTSDYSKYLDARAA[Phe(4-CH2NH2)]([AEEA-γGlu-C18 diacid])DFVQWLLDT-NH2
modifications: N-terminus assumed
SMILES: CC(C)C[C@H](NC(=O)[C@H](Cc1ccc(O)cc1)NC(=O)[C@H](CCCCN)NC(=O)[C@H](CO)NC(=O)[C@H](Cc1ccc(O)cc1)NC(=O)[C@H](CC(=O)O)NC(=O)[C@H](CO)NC(=O)[C@@H](NC(=O)[C@H](Cc1ccccc1)NC(=O)[C@@H](NC(=O)CNC(=O)[C@H](CCC(N)=O)NC(=O)C(C)(C)NC(=O)[C@@H](N)Cc1c[nH]cn1)[C@@H](C)O)[C@@H](C)O)C(=O)N[C@@H](CC(=O)O)C(=O)N[C@@H](C)C(=O)N[C@@H](CCCNC(=N)N)C(=O)N[C@@H](C)C(=O)N[C@@H](C)C(=O)N[C@@H](Cc1ccc(CNC(=O)COCCOCCNC(=O)CC[C@H](NC(=O)CCCCCCCCCCCCCCCCC(=O)O)C(=O)O)cc1)C(=O)N[C@@H](CC(=O)O)C(=O)N[C@@H](Cc1ccccc1)C(=O)N[C@H](C(=O)N[C@@H](CCC(N)=O)C(=O)N[C@@H](Cc1c[nH]c2ccccc12)C(=O)N[C@@H](CC(C)C)C(=O)N[C@@H](CC(C)C)C(=O)N[C@@H](CC(=O)O)C(=O)N[C@H](C(N)=O)[C@@H](C)O)C(C)C
B6: TP636 (peptide)
peptide: H[Aib]QGTFTSDYSKYLDARAA[Phe(4-CH2NH2)]([AEEA-AEEA-γGlu-C18 diacid])DFVQWL[Met(O2)][αMeD]T-NH2
modifications: N-terminus assumed
SMILES: CC(C)C[C@H](NC(=O)[C@H](Cc1ccc(O)cc1)NC(=O)[C@H](CCCCN)NC(=O)[C@H](CO)NC(=O)[C@H](Cc1ccc(O)cc1)NC(=O)[C@H](CC(=O)O)NC(=O)[C@H](CO)NC(=O)[C@@H](NC(=O)[C@H](Cc1ccccc1)NC(=O)[C@@H](NC(=O)CNC(=O)[C@H](CCC(N)=O)NC(=O)C(C)(C)NC(=O)[C@@H](N)Cc1c[nH]cn1)[C@@H](C)O)[C@@H](C)O)C(=O)N[C@@H](CC(=O)O)C(=O)N[C@@H](C)C(=O)N[C@@H](CCCNC(=N)N)C(=O)N[C@@H](C)C(=O)N[C@@H](C)C(=O)N[C@@H](Cc1ccc(CNC(=O)COCCOCCNC(=O)COCCOCCNC(=O)CC[C@H](NC(=O)CCCCCCCCCCCCCCCCC(=O)O)C(=O)O)cc1)C(=O)N[C@@H](CC(=O)O)C(=O)N[C@@H](Cc1ccccc1)C(=O)N[C@H](C(=O)N[C@@H](CCC(N)=O)C(=O)N[C@@H](Cc1c[nH]c2ccccc12)C(=O)N[C@@H](CC(C)C)C(=O)N[C@@H](CCS(C)(=O)=O)C(=O)N[C@@](C)(CC(=O)O)C(=O)N[C@H](C(N)=O)[C@@H](C)O)C(C)C

Columns and labels:
[1] = biological target: human GLP-1 receptor (GLP1R) (human, UniProt P43220 24-463); assay: cell-based or functional assay
[2] = biological target: human Glucagon receptor (GCGR) (human, UniProt P47871 26-477); assay: cell-based or functional assay
Chain of human Glucagon receptor (GCGR) (P47871 26-477): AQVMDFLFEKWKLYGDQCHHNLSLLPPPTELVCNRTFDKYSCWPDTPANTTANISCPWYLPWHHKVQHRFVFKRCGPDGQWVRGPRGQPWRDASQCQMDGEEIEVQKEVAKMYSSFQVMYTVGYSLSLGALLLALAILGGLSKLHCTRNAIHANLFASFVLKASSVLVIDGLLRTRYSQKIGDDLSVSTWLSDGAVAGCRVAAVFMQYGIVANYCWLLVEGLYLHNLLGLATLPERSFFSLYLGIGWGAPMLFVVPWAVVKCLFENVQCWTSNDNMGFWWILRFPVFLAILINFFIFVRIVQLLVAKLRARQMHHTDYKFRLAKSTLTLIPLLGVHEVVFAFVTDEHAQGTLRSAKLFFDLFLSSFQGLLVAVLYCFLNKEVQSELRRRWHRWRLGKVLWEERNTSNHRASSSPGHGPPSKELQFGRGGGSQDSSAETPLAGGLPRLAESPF

| Binder | GLP1R EC50 human [1] [nM] | GCGR EC50 human [2] [nM] |
| --- | --- | --- |
| B1 | 1.55 | 5.05 |
| B2 | 0.53 | 0.94 |
| B3 | 0.46 | 1.09 |
| B4 | 0.49 | 0.77 |
| B5 | 2.13 | 0.46 |
| B6 | 0.52 | 0.11 |
